According to patent US20120253017A1 (published 2012):

T1: cyno c-kit (recombinant, on BIAcore chip) (cynomolgus monkey)
T1 chain: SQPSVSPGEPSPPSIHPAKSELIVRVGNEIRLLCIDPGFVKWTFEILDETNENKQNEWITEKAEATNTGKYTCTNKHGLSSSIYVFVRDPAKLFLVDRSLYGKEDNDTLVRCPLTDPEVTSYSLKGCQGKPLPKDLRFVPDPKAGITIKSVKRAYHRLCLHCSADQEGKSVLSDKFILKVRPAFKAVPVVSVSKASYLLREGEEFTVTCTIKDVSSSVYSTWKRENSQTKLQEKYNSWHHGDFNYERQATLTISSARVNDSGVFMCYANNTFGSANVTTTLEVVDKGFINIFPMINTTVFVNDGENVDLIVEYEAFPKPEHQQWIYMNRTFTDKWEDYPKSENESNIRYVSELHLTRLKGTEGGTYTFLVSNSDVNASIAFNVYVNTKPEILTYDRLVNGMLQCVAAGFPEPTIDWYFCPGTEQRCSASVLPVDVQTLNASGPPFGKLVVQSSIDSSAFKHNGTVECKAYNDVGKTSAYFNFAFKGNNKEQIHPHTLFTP


Columns and labels:
[1] = molecular target: T2, human c-kit on HEL-92.1.7 and KU812 cells (human, UniProt P10721 26-976); test: flow cytometry, HEL-92.1.7 cells
T2 construct: whole, on cells

[2] = molecular target: T3, human c-kit (recombinant, on BIAcore chip or beads) (human, UniProt P10721 26-524); test: BIAcore, c-kit on SA chip
T3 construct: extracellular domain; also called hcKIT; biotinylated human c-kit
Experimental: All unique dAb clones were expressed in 50 ml cultures (OnEX plus carbenicillin) overnight at 37° C. and purified on protein A (VH dAbs) or protein L (VK dAbs). Purified dAbs were passed over a SA BIAcore chip coated with either human or mouse c-kit at 1 μM to identify those dAbs that bound specifically to either human or murine c-kit.

[3] = molecular target: T1, cyno c-kit (recombinant, on BIAcore …); test: BIAcore, c-kit on SA chip
[4] = molecular target: T3, human c-kit (recombinant, on BIAcore …); test: BIAcore, dAb at 1000 and 500 nM
Experimental: Unique dAbs were expressed as bacterial supernatants in 2.5 L shake flasks in Onex media at 37° C. for 24 hrs at 250 rpm. dAbs were purified from the culture media by absorption to protein A or L agarose followed by elution with 10 mM glycine pH2.0.

[5] = molecular target: T3, human c-kit (recombinant, on BIAcore …); test: BIAcore
[6] = molecular target: Myosin Light Chain (on streptavidin chip; vMLC1-sulfotag); test: BIAcore, bad fit
Myosin Light Chain (on streptavidin chip; vMLC1-sulfotag), sequence (chain, as listed by the source): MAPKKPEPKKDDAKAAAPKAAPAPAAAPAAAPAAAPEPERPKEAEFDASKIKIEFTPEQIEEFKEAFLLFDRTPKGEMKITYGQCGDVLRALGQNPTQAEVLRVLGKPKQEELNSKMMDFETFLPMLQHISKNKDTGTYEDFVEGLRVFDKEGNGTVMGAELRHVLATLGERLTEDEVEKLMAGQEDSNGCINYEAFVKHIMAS

T2 sequence (P10721 26-976): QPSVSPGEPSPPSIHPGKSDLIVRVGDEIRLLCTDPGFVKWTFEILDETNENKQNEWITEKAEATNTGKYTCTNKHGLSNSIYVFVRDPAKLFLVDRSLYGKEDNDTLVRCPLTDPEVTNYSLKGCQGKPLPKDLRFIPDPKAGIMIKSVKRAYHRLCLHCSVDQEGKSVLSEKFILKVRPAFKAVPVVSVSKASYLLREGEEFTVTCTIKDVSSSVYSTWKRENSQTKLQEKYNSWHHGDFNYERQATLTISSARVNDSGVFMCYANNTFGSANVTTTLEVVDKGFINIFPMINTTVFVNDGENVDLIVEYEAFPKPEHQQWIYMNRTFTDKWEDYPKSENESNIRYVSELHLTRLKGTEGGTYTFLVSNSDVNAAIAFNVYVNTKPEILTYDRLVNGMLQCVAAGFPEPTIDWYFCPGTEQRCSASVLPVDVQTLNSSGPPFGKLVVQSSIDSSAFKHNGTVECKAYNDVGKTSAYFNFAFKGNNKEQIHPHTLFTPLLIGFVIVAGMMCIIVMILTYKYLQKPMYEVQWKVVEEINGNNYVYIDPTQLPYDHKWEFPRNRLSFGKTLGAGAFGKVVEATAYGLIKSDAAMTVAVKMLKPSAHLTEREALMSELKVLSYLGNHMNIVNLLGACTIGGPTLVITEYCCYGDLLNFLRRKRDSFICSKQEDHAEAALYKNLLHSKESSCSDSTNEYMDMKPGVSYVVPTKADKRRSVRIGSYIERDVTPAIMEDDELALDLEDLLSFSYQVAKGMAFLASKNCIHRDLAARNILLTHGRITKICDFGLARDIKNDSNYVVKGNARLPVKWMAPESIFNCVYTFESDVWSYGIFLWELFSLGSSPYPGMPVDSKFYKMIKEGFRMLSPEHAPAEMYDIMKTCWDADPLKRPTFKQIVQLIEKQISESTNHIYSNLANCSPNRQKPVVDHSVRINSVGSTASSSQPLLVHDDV

Kd [2] [nM] | Kd [3] [nM] | Kd [4] [nM] | Binder | further results
896 | 10200 | 896 | DOM28h-84 (other, dAb, C-terminal FLAG tag (pDOM10); also called DOM28h-084) EVQLLESGGGLVQPGGSLRLSCAASGFTFSSYGMSWVRQAPGKGLEWVSWISGTGSGTYYADSVKGRFTISRDNSKNTLYLQMNSLRAEDTAVYYCAKGVPGNNRALFDYWGQGTLVTVSS | –
239 | 345 | – | DOM28h-43 (other, dAb, C-terminal FLAG tag (pDOM10); also called DOM28h-043) DIQMTQSPSSLSASVGDRVTITCRASSPIGESLKWYQQKPGKAPKLLIWGGSWLQSGVPSRFSGSGSGTDFTLTISSLQPEDFATYYCGPGRGWPLTFGQGTKVEIKR | –
21800 | 19200 | 21800 | DOM28h-94 (other, VH dAb, C-terminal FLAG tag (pDOM10); also called DOM28h-094) VH: EVQLLESGGGLVQPGGSLRLSCAASGFTFFPYAMGWVRQAPGKGLEWVSFISGRGDTTYYADSVKGRFTISRDNSKNTLYLQMNSLRAEDTAVYYCAKTATSDLWNFDYWGQGTLVTVSS | –

The next lines start with the binder.

Binder | Kd [2] [nM] | Kd [3] [nM] | Kd [4] [nM] | further results
DOM28m-52 (other, dAb, C-terminal FLAG tag (pDOM10)) EVQLLESGGGLVQPGGSLRLSCAASGFTFSSYNMSWVRQAPGKGLEWVSWISSSGLMTYYADSVKGRFTISRDNSKNTLYLQMNSLRAEDTAVYYCAKTSLGSHPSRRPFDYWGQGTLVTVSS | – | – | – | binding result [1]: binds
DOM28m-53 (other, dAb, C-terminal FLAG tag (pDOM10)) VH: EVQLLESGGGLVQPGGSLRLSCAASGFTFSDYMMMWVRQAPGKGLEWVSTIDHAGAVTYYADSVKGRFTISRDNSKNTLYLQMNSLRAEDTAVYYCAKNQPVWQANQSRRFDYWGQGTLVTVSS | – | – | – | binding result [1]: binds
DOM28h-5 (other, dAb, C-terminal FLAG tag (pDOM10); also called DOM28h-005) DIQMTQSPSSLSASVGDRVTITCRASQWIGTALTWYQQKPGKAPKLLIYRGSYLQSGVPSRFSGSGSGTDFTLTISSLQPEDFATYYCQQRYFHPYTFGQGTRVEIKR | 533 | 550 | 533 | –
DOM28m-47 (other, dAb, C-terminal FLAG tag (pDOM10)) VH: EVQLLESGGGLVQPGGSLRLSCAASGFTFEAYGMMWVRQAPGKGLEWVSSISHSGLITYYADSVKGRFTISRDNSKNTLYLQMNSLRAEDTAVYYCAENGPLRQNSYFDYWGQGTLVTVSS | – | – | – | binding result [1]: binds
DMS5053 (chimeric MLC mAb-cKIT dAb, DOM28m-017) (bispecific antibody) heavy: not shown light: DIVMSQSPSSLAVSAGDKVTMSCKSSQSLLYSRTRKNYLAWYQQKPGQSPKLLIYWASTRQSGVPDRFTGSGSGTDFTLTISSVQAEDLAVYYCKQSYNLFTFGSGTKLEIKRTVAAPSVFIFPPSDEQLKSGTASVVCLLNNFYPREAKVQWKVDNALQSGNSQESVTEQDSKDSTYSLSSTLTLSKADYEKHKVYACEVTHQGLSSPVTKSFNRGEC | – | – | – | Kd [5]: 36000 nM; Kd [6]: 0.003 nM
DMS5057 (chimeric MLC mAb-cKIT dAb, DOM28m-109) (bispecific antibody) heavy: not shown light: DIVMSQSPSSLAVSAGDKVTMSCKSSQSLLYSRTRKNYLAWYQQKPGQSPKLLIYWASTRQSGVPDRFTGSGSGTDFTLTISSVQAEDLAVYYCKQSYNLFTFGSGTKLEIKRTVAAPSVFIFPPSDEQLKSGTASVVCLLNNFYPREAKVQWKVDNALQSGNSQESVTEQDSKDSTYSLSSTLTLSKADYEKHKVYACEVTHQGLSSPVTKSFNRGEC | – | – | – | Kd [5]: 318 nM; Kd [6]: 0.116 nM
DMS5055 (chimeric MLC mAb-cKIT dAb, DOM28m-104) (bispecific antibody) heavy: not shown light: DIVMSQSPSSLAVSAGDKVTMSCKSSQSLLYSRTRKNYLAWYQQKPGQSPKLLIYWASTRQSGVPDRFTGSGSGTDFTLTISSVQAEDLAVYYCKQSYNLFTFGSGTKLEIKRTVAAPSVFIFPPSDEQLKSGTASVVCLLNNFYPREAKVQWKVDNALQSGNSQESVTEQDSKDSTYSLSSTLTLSKADYEKHKVYACEVTHQGLSSPVTKSFNRGEC | – | – | – | Kd [5]: 72 nM; Kd [6]: 0.124 nM
DOM28h-33 (other, dAb, C-terminal FLAG tag (pDOM10); also called DOM28h-033) EVQLLESGGGLVQPGGSLRLSCAVSGFTFWNYRMGWVRQAPGKGLEWVSSITPQGTHTYYADSVKGRFTISRDNSKNTLYLQMNSLRAEDTAVYYCAKILSMSENHFDYWGQGTLVTVSS | 48 | 98.5 | 48 | –
